Values joined by “and” are separate entries in the source; they are usually repeats but may differ in a detail not shown here. Equal values may be shown once.
T1: synthetic peptide corresponding to amino acid residues 105-123 in human α-synuclein (human)
T1 construct: also called unlabeled peptide
T1 peptide: EGAPQEGILEDMPVDPDNE

T2: peptide corresponding to amino acid residues 37-51 of human α-synuclein (human)
T2 construct: One of a series of 15-mer peptides spanning the length of human α-synuclein; also called 15-mer peptide
T2 peptide: VLYVGSKTKEGVVHG

B1: anti-α-synuclein monoclonal antibody 13F3 Fab (Fab, V domains shown)
VH: QVQLQQSGAELVKPGASVKMSCKASGYTFTSYWITWVKKRPGQGLEWIGDISPGSGSTHYNEKFKSKATLTVDTSSSTAYIQLFSLTSEDSAVYYCAIAQTTFAYWGQGTLVTVSA
VL: DVLMTQTPLSLPVSLGDQASISCRSSQSIVHSNGNTYLEWYLQKPGQSPKLLIYKVSNRFSGVPDRFSGSGSGTDFTLKISRVEAEDLGVYYCFQGSHVPPTFGGGTRLEIK
notes: also called 13F3 Fab fragment
B2: anti-α-synuclein monoclonal antibody 13F3 (mIgG2a) (antibody, V domains shown)
VH: B1 VH
VL: B1 VL
notes: Mouse monoclonal, mIgG2a, expressed recombinantly in 293 cells
B3: anti-α-synuclein monoclonal antibody 1F7 (mIgG2a) (antibody, V domains shown)
VH: EVQLQQSGAELVKPGASVKLSCTASGFNIKDYYMDWVKQRTEQGLEWIARIDPEDGETKYAPKFQGKATITADTSSNTAYLQLSSLTSEDTAVYYCRVFDYWGQGTTLTVSS
VL: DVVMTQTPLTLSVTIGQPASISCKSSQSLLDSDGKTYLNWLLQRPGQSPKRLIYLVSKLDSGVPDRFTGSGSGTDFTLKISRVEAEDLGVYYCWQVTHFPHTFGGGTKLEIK
notes: as for B2

Key:
[1] = target: T1, synthetic peptide corresponding to …; test: NMR competition, unlabeled peptide added to the Fab-α-synuclein complex
Method: (§1) NMR was used to identify the binding epitope of anti-α-synuclein monoclonal antibody 13F3 and of anti-α-synuclein monoclonal antibody 1F7 as follows. NMR samples were prepared by adding a solution of ¹³C/¹⁵N labeled recombinant human α-synuclein in PBS […] at a concentration of 1 mg/ml (71 μM) purchased from Giotto Biotech (Sesto Fiorentino (FI), Italy) to a volume of 180 μl into 3 mm NMR tubes. Complex formation of the antibody bound form of α-synuclein was achieved by addition of an 18 mg/ml (120 μM) solution of antibody 13F3 and 17.8 mg/ml (118 μM) of antibody 1F7 in PBS (pH 7.2) in aliquots of 9 μl to the NMR sample. 2D HSQC-TROSY spectra were recorded at increasing concentration of Fab and the proton-amide cross peak intensity monitored in CCPN. (See Vranken et al (2005) Proteins 59:687-696.) All spectra were recorded at calibrated 300 K on a Bruker 600 MHz spectrometer using a 5 mm TXI cryo-probe. The final molar ratio used for data analysis of 1:0.5 α-synuclein:Fab. All data was processed using Topspin 3.1 (Bruker Karlsruhe, Germany) and visualized and analyzed using CCPN. Samples of ¹³C/¹⁵N labeled α-synuclein were measured in PBS (pH 7.2) buffer at 1 mg/ml corresponding to a concentration of 71 μM. […] Signal intensities were evaluated in CCPN. The signal errors were extrapolated in CCPN based on the signal to noise of the recorded data. […]

[2] = target: 13C/15N labeled recombinant human α-synuclein (human, UniProt P37840 1-140); test: NMR 2D HSQC-TROSY, 1:0.5 α-synuclein:Fab; cutoff for epitope residues was attenuation above 50
Method: as §1

[3] = target: T3, recombinant human α-synuclein (human, UniProt P37840 1-140); test: SPR Biacore T200, antibody capture format, steady-state analysis (text summary of Table 2)
Method: (§2) Monovalent affinities of anti-α-synuclein antibodies 13F3 and 1F7 for human α-synuclein were assessed using Surface Plasmon Resonance in a Biacore T200 instrument. These experiments utilized an antibody capture format where the test antibody was immobilized by binding the test antibody to a chip pre-coated with a murine IgG capture reagent and subsequently allowed to bind α-synuclein protein in solution.
(§3) A murine IgG capture chip was prepared using the GE murine IgG capture kit according to the manufacturer's instructions. Briefly, a Series S CM5 sensor chip was activated with a mixture of EDC/NHS before exposure to a solution of capture antibody in a 10 mM sodium acetate (pH 5.0) buffer. Remaining covalent attachment sites were blocked with ethanolamine.
(§4) To assess binding, anti-α-synuclein monoclonal antibody 13F3 and anti-α-synuclein monoclonal antibody 1F7 were captured using a 1 μg/ml solution in running buffer (1×HBSP; 10 mM HEPES, pH 7.4, 150 mM NaCl, 0.05% Tween20) at a flow rate of 10 μl/min. Binding of human α-synuclein in solution was monitored at six different concentrations (a three-fold dilution series spanning concentrations from single-digit nanomolar to greater than 1 μM) and one replicate concentration, at a flow rate of 30 μl/min. […]

[4] = target: T3, recombinant human α-synuclein; test: SPR Biacore T200, antibody captured on murine IgG capture chip, α-synuclein in solution, steady-state analysis, 25 C, Expt A
Method: as §2, §3, §4

[5] = target: T3, recombinant human α-synuclein; test: SPR Biacore T200, antibody captured on murine IgG capture chip, α-synuclein in solution, steady-state analysis, 25 C, Expt B
Method: as §2, §3, §4

[6] = target: T2, peptide corresponding to amino acid …; test: peptide mapping with a series of 15-mer peptides

Binder | binding result [1] | NMR signal attenuation at isoleucine 112 [2] [fold] | Kd [3] | Kd [4] | Kd [5] [µM] | binding result [6]
B1 | binds | 1.79 |  |  |  | 
B2 |  |  | 0.45 µM and 0.47 µM | 0.41 µM and 0.49 µM | 0.46 | 
B3 |  |  | 0.18 µM | 0.13 µM | 0.16 | binds

Reference: patent publication US20160108113A1 (Genentech, published 2016)
